For 19 sequences, protein production results are on record in a protein production outcome set (Wang et al. 2014).

A short description of the data set: label from the status in PepcDB records.
On to “MKSLETMARYKKELTECARNLKLPFLAEHLDEILHEAQEKQQTYSEFLSTCLMRELRDKERRSYLTRLKFAGLPARYDLDLYDFSRTEGIDQRQMRELRELVWIRRTYNLLLVGDSGTGKTFIASGLIHEAVKAGYKAYLLTLEELFVCLKTKEISRPAMKTYKRIMKAQLLAIDDVTLFPLKGEDVLLLFKLVNCVQGKTSLIITASRDLTGWLEMAGDEVCAAALLDRLLYCCEIIRLSGKSYRMENRKTIFSNQQIGTASLEHHHHHH”, for which the protein production entry is “failed”.
For “MKSLLMRTGSMPVLQNRLISGGSSRKMTPISRTNSVESLSSYGERFAGGKISIEVKANVGMRRVLSESDVIRSERMLKRVGSKPSPARIPEDDEAGEEEIRFADGWGSMISGGLPVEEKCFTGGGVGGGSGYSGGYGNGGGGGYEDKSKIGDYYREMLRSNPNNSLLLMNYGKFLYEVEKDAEGAEEYYGRAILENPGDGEALSMYGRLIWETKRDEKRAQGYFDQAVNASPNDCMVLGSYARFMWEAEDDDDDDEEEEEEEWMAASPLMVSAV” the value was “failed”; for “MKSNDTSFRRYLCSASPRLRPALLAMLTVVLLAGCATADKHGLSPQQRSASDLADSEEIDPAARERISHALGRDADEGALRDALKQQPNNIDAAIPLARALLARNCPNDALEVLDGVLLATPGDLRALNAKAVVLDHEGRHQEAQELYRQALAAEPANPMLRNNFGLSLALQGKMDAGDASAAPQAGSRKALARSR”, “failed”.
As to “MKSNLFMKRKLEIGLSLLIGTSVFGGCNNDLAPIRQSQTFPPNLNAPTVFESFSPDSGGVKTQLIIRGQNFGTDTAYLKVTVNNKRAAIVGVADDVIYAIVPARADTGYVRLFVGKDDNVEEYASQTKFIYQFKRNVTTLMGRQGQSGRDDGPYAECKLQRPWFALADKDGALFFIDEGRGQNKNGALRRAQEGWVETLVQNSSGPFQSPTCLAFNPKQDTLYISNMSYGSDIKTSFNILYVTREGGFMDVKGLCKFEKAETQGLAVHPQTGEIFFCNKSGGYIYRFNGPDYEDYEPLFQINRADKIDTRMVFNPEGTALFVVVCNRHCIYKVPYNALTHTFGEPELFAGGWDESGYVNGSGVTARFDNPRQPAFDQDGNMFVPEYGRHTIRKITPTGEVSLYAGLPGQAGFTDGLPEKARFNKPECVTVYLDNSLYVADRDNHLIRRVTVE”, the protein production result is on record as “failed”.
On to “MKSRTRWLTSEELVTLFEAMRQAPGFSVENGLSIKLLLLLAVRKGELIGARWSEFDLDKAVWYLPAERTKTESAIDIPLPPIAVEWLRELQRLAGVSKWVLPARKMQDRMIPHIAESTLSVALAKIKHGLEPFTIHDLRRTARTHFEALGVAPHIAERCLNHKIKGIEGIYNRHDYFEERKAALEAWAGLLLQIERGEADKVVPIRRAVATKQLEHHHHHH”, for which the protein production result was “failed”.
For “MKSSDIDQDLFTDSYCKVCSAQLISESQRVAHYESRKHASKVRLYYMLHPRDGGCPAKRLRSENGSDADMVDKNKCCTLCNMSFTSAVVADSHYQGKIHAKRLKLLLGEKTPLKTTGLRRNYRCAICSVSLNSIEQYHAHLKGSKHQTNLKNK” the value was “failed”.
For “MKSTAEDLINGEISSVGVYLYNKLKNYVFEKESSEKTAIRKADFGKIIEEKTDLEEFPAVSKEDIKAICEILYNSKDIEIIIKQLYVFQSDINKSLDEIKEDFVSLFPKTINLENGRINLETGERISFLLKIFEVLDEGIQTALNRAVDEGSSGASNALSNRRHFDMKNKLANGFKEVKKLINESSRAVQEKKIPTEKLPSLFISYAREDDEPFVEKLYQGLKEKGFEIWWDRTAMKNRGRTFLQEIRDAIEDSDLLIAVIGPKAIESDSVRYEWEHALLFSKGVIPVLRMGDYNLLLPEMSKLHCPDFREKRPYEEALEELIRLLKEPIPSLGPIIGIPSLPPNHLPRKNDLNIIKEIILADTVKPVVITSTKQVTALQGMGGMGKSVLSAAFARSAETRRAFYDGIFWITVGLEASESDASGNMRLIGTNLGDDPVNYSSKKEAEASLSKMLSDKVCLIILDDVWKVPQATPFFNALGSRCRLLITTRNDDVVTSLGAQKHEIKVLGKPEALKLLANWCEQEIDSLTSKAAEVARECGYLPLALSICGAMAKSGISWTYILEALQEADLEFIEAQLPNYPDPNVGRALKVSVDFLSLEDPNAVMRYQELVIFPEDELVPETTIAMLWEHTGNLKRRNVEKLLTKLKDRSLLRLDGEAPNRLISLHDLQLDYLRATVGDLTSLHNKLLAAYGKECGNKWSNGSEDGYFFEHLAYHMKEAGRREELHKLLLDFEWMCKKIKCVRLMQEKDGKGIPDLNSLLHDYEFLSNEPKIELVKEAIQLSFDIIAKDEAQFSGQLIGRLQVFNQNEEIRLLLDQATQWKEEDVRLIPLQPCLKPPGGSLKRTFKAHAHPINDVVITSNGKVAISASTDKTIRIWDLNEWIEKGTLKGHLTPVTAIAVSLDGKYAASCSYHIMCLIGDNNIKVWDLEKREEKTTLKGHTHWVQTVAITPDGKYIVSGSLDKTIKFGI” the value was “failed”.
For the sequence “MKSTLIDNFTLLLWASLMASSFVVSEQLLPYANPIASTALRFILATILMMPFIGRASIKQLNYKILLRYSVISLFLVLFFIGLFEALKTTNAMRTSVIYTLLPLISVVLTYIGLKFVTPNKQIAGFLIGTLGAIWVLVAFTQGKLVLIEWRLGDSIFLVACCCLALHVILIKKWATDVPPMLGAFYIMLLGSLILLPFLIFFGDLNNIAWHEDEFWKVLLYLTLFTTIATFFLQQHLLKKVGPNRLLGFTYLIPSIVLIPQGLANMSQLYSVVPGIMLTFLALYLISPKHQ”, the protein production entry was “failed”.
For “MKSVAGGLLRIGMRHDHDMTNRRLDAVILAGGCAHRLGGVAKANLRVGTRRLLDVVLDAVDGAREGLEGSNVVVARESVEVPWSVIRTMEDPPGSGPLAGIRAGLQALPPAQPDDLVLVCAVDSPGIGRSIRQLREALEDDPLNHFAGAVTFGGVPKPHRQLLQGLYRRVPLEASIAAADTVVNRSVHSVLGGLCLLDLPVEPEACRDLDTPGDVEWWLRHIGD”, the protein production entry was “failed”.
As for “MKSVGQALENQGRVPRNTNDELIQMILADAQVAEFIKTHQLSQREINISMSKFNQFLIERQKFKNKDSQYIAKGYEPILVMNEGYADVSYLETRELIEAQKKQAISDRINLVNLPKSYRNIRMTDFDINNESRMKAMSQLLDFVETYPSYNHKGLYLYGDMGVGKSYLMAAMARELSERKGVSTTLLHFPSFAIDVKNAISSGTVKDEIDAVKSVPILILDDIGAEQATSWVRDEILQVILQHRMLEELPTFFTSNYSFNDLERKWANIKGSDETWQAKRVMERVRYLAIEFHLEGPNRR”, the protein production entry is reported as “failed”.
Consider “MKSYLVGGAVRDALLGQPAGDCDWVVVGADPAHMKSLGFKPVGRDFPVFLHPKTGEEFALARTERKNGHGYRGFIVNADPTVTLEQDLQRRDFTINAIARDQTNGTLIDPYGGVNDLEQRVLRHISPAFAEDPLRVLRAARFMARLAPLGFSIAPETLAMMRQMAANGELNSLIPERIWKELSRSLTYTQPAAFLHTLRTVNALEVVLPELNALYGVPQHADYHPEIDTGLHQELVSDIAAKLAPGDMLIGFAALCHDLGKALTPRATWPHHPMHEQRGMAPTQQLSERLKVPRNYQQLALIACREHLNVHRLSKLHDNTVYELLQRCDAFRRPERIAQLAIVCEADYRGRYGHEDANYPQGQHLCRLHAAALAINARDLNRQDLHGTQIGEALAQARIRAISSAGVYDGGTGTNF”, for which the protein production result is on record as “failed”.
On to “MKTAWLLLLLLGVGALGGCAVNPATGKSDFVMMSEQQELGMGARYNQEILKQFPRYNDEKLQAYVQRVGERVARSSHRSNLQYHFTVIDSPDINAFALPGGYIYIHRGLIAYLGSEAELAAVLGHEVGHVTARHSVRQQSQASAWNILGQAVAIGTGVGAAGDLANVLGTAFVRGYGRDMELEADGLGAQYLARAGYDPTAMIQVVRVLKNQEDFAREEAARNGQAVQAGGYHGLFDTHPDNDRRLQEVVGPARQLANGQQEVGREVFLRHLEGMPFGDSASAGVRRGQNFYHAELDFTLSYPAGWKILNQPSALLGYPADEQSFIGMKLVPHDSRLTPAEFLRKNAGQRLAQEESLKQAGLNGYTAVVPGNPARRVAVIYQGDRAYLFVGVVKVGSLETQDDRFLSVIRSFRPLRDKERALAQPRRLHLVQVKAGQTLEQLAAGGEGSLSDSVARLRLLNDLYPSGEPRPGDWLKVVR”, for which the protein production entry was “failed”.
For “MKTFKKGVILDAKSVGLKALEVLKEVADFDFYEVTPPSQIVERSIEAEIMVLNKVVITQEVLSQLPKLKLICITATGTDNVDIKSAKALGIEVKNVSAYSTESVAQHTLACALSLLGRINDYDRYCKSGEYSQSDLFTHISDIKMGLIKGSQWGVIGLGTIGKRVAKLAQAFGAKVVYYSPKDKKEEYERLSLKDLLATSDIISIHAPLNESTRDLIALKELQSLKDGAILINVGRGGIVNEKDLAEILETKDLYYASDVFVKEPFEKDHAFLNPKIQNKLLLTPHIAWAYSDSLKTLVEKTKENIQDFLASQK”, the protein production result is “failed”.
Regarding “MKTGKELKPGTVLRIDNDPWLVQKAEFTKSGRNSAIMKTKLKNLLTGYKTETVYGADDKLDDVILDRKEATLSFINGDEYTFMDTTDYTMYELNAEDIEAVLPYIEEGMEDVCEAVFFEGRLVSVELPTTISRKVVYTENAARGDTSGKVMKPAKLANGTEISVADFIQIDEWIDIDTRDNSFKGRSKKLEHHHHHH”, the protein production result was “not failed”.
For the sequence “MKTIKDWQINICLATYNGQKYLRQQLDSIIQQGYTDWICLIRDDGSTDDTVAIIKEYVNRDSRFIFINSNDDRKLGSHRSFYELVNYKKADFYVFSDQDDVWKENRLERYLEEAEKFNQELPLLVYSNWTSVDEKLTVLKEHNPATVIQEQIAFNQINGMVIMMNHELAKLWEYRQIGAHDSYVGTLAYAVGNVAYISDSTVLWRRQVGAESLNNYGRQYGVATFWQMINTSFDRASLIFAQVSDKMSLERKLFFSRFIELKNANLMRRIYLLSKLKLRRKSLKETVAMTILLLTGYGKPKALEHHHHHH”, the protein production entry is given as “not failed”.
For “MKTITQELKQYMTHLFQLSNNEAWECEALEEAAENILPERFINDSPLVQLTLETYTYYNDELHELSIYPFLMYANNQLISIGYLDHFDMDFLYLTDTQNIIIDERHLLKQGGQDHELEHHHHHH”, the protein production result is “not failed”.
For “MKTIVIEDKQRIESIILQADACFVGITDLEGNPYVVPMNFGYENDTLYLHSGPEGGKIEMLQRNNNVCITFSLGHKLVYQHKQVACSYSMRSESAMCRGKVEFIEDMEEKRHALDIIMRHYTKDQFSYSDPAVRNVKVWKVPVDQMTGKVFGLRADEKP” the value was “not failed”; for “MKTKIAYEEVAGMLNQWYVMIKRHEVSQAVSIKCDIEHQLPNMEENQDLLLYFNLLDYRHKLLTEEFAASNKLFEDIQEQKADMQSTDDMIEYYYFFFAGMYEFHKKDYTNAINYYKLAEEKLRTIPDQIEIAEFHYKLAIAYYQIKQNFLSLNHAKTALKTFKAHDDYIQKAISNDMLIGANKLDLFRFDEAEQHYKQALKDAALIKHHVLLGMAHHNLGLSYVNRNLLTLAEHHFKEALLIKEHEESVYGIHSMFELTHVLYKSNVVKEARKLYEKGFFRAEKAGEREYLSKFKLIHALYDEQDPLTVEHALEYLKTINLWTDVAELTFDIALYYKENGDADKAAEYFEESHHARDQILKRTEELK”, “failed”.
As for “MKTKQTDELLAKDEQYVWHGMRPFSPNSTMVGAKAEGCWVEDIQGKRYLDGMSGLWCVNSGYGRKELAEAAYKQLQTLSYFPMSQSHEPAIKLAEKLNEWLGGEYVIFFSNSGSEANETAFKIARQYYAQKGEPHRYKFMSRYRGYHGNTMATMAATGQAQRRYQYEPFASGFLHVTPPDCYRMPGIERENIYDVECVKEVDRVMTWELSETIAAFIMEPIITGGGILMPPQDYMKAVHETCQKHGALLISDEVICGFGRTGKAFGFMNYDVKPDIITMAKGITSAYLPLSATAVKREIYEAFKGKGEYEFFRHINTFGGNPAACALALKNLEIIENENLIERSAQMGSLLLEQLKEEIGEHPLVGDIRGKGLLVGIELVNDKETKEPIDNDKIASVVNACKEKGLIIGRNGMTTAGYNNILTLAPPLVISSEEIAFVIGTLKTAMERI”, the protein production result is given as “failed”.
